doi:10.1101/2023.08.20.554025

Legend:
Assay in all cases: negative-stain EM
[1] = molecular target: GhV F S196C/A215C ectodomain (Ghanaian virus (GhV))
[2] = molecular target: GhV F I268F/Q287P ectodomain (Ghanaian virus (GhV))
[3] = molecular target: GhV F I268F/Q287P/S196C/A215C ectodomain (Ghanaian virus (GhV))

“GhV F S196C/A215C ectodomain (domain or fragment)” gave a stoichiometry N [1] of 3.

“GhV F I268F/Q287P ectodomain (domain or fragment)” showed a stoichiometry N [2] of 3.

“GhV F I268F/Q287P/S196C/A215C ectodomain (domain or fragment)” gave a stoichiometry N [3] of 3.
